The text below walks through data of patent US20240294623A1.

This assay has as its target antigen of FIG. 44 (not named). Description: SPR (Biacore), Fab, FIG. 44. (In general: Surface plasmon resonance follows binding to a sensor surface in real time, without labels.)

B1: Ab46 Fab (Fab, V domains shown)
VH: EVQLLESGGGLVQPGGSLRLSCAASGFTFADYAMTWVRQAPGKGLEWVSAISGSGAATYFADSVKGRFTISRDNSKNTLYLQMNSLRAEDTAVYYCARVSSGHWDYDYWGQGTLVTVSS
VL: DIQLTQSPSSLSASVGDRVTITCRASQSISSYLNWYQQKPGKAPKLLIYAASGLESGVPSRFSGSGSGTDFTLTISSLQPEDFATYYCQQTYGVPLTFGGGTKVEIK
Take B1: the fold longer bound than the reference antibody is more than 50 fold and the t1/2 is more than 130 min.
